Data published in PMC5387809, “The Combination of Computational and Biosensing Technologies for Selecting Aptamer against Prostate Specific Antigen”.

Key:
Conditions in all cases: protein: commercial; hairpin (predicted)
[1] = molecular target: T1, prostate specific antigen (PSA) (human, UniProt P07288 25-261); assay: QCM; 2 ng/ml PSA injected; PBS (10 mM Na2HPO4, 137 mM NaCl, 2 mM KH2PO4, 2.7 mM KCl), pH 7.4; SPR at 25 C, 50 ul/min; PSA 2 ng/ml; DNA/PEG thiol SAM on gold; QCM temperature not stated
T1 sequence (P07288 25-261): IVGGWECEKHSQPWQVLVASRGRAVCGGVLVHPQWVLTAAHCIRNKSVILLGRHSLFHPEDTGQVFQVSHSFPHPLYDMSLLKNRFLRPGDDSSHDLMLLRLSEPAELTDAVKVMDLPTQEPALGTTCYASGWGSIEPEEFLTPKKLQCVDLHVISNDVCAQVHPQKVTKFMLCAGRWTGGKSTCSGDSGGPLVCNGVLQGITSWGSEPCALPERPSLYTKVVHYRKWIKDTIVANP

[2] = molecular target: T1, prostate specific antigen (PSA); assay: as above; remark: listed apart in the source
[3] = molecular target: T1, prostate specific antigen (PSA); assay: SPR; ka 3.11e3 M-1s-1, kd 11.23e-3 s-1; PBS (10 mM Na2HPO4, 137 mM NaCl, 2 mM KH2PO4, 2.7 mM KCl), pH 7.4; SPR at 25 C, 50 ul/min; PSA 2 ng/ml; DNA/PEG thiol SAM on gold; QCM temperature not stated
[4] = molecular target: T1, prostate specific antigen (PSA); assay: SPR; ka 3.37e3 M-1s-1, kd 12.34e-3 s-1; PBS (10 mM Na2HPO4, 137 mM NaCl, 2 mM KH2PO4, 2.7 mM KCl), pH 7.4; SPR at 25 C, 50 ul/min; PSA 2 ng/ml; DNA/PEG thiol SAM on gold; QCM temperature not stated

With TTTTTAATATCCGGGGAACGTCGTGGCCCTTT (ssDNA, 5' C6 thiol) [PSAG28] the binding signal [1] was 166 ± 6.7 Hz (frequency drop).

For TTTTTCCGCACCGGGTACGGTCGTGGCCCTTT (ssDNA, 5' C6 thiol) [PSAG114], the binding signal [2] was 63 ± 5.4 Hz (frequency drop).

In the case of TTTTTACGCACCGGGTACGTTTTTTGGCCTTT (ssDNA, 5' C6 thiol) [PSAG119], the binding signal [2] is reported as 91.3 ± 9.7 Hz (frequency drop).

In the case of TTTTTCTGGTCCGGGTACGTTTTTTGGCCTTT (ssDNA, 5' C6 thiol) [PSAG17], the binding signal [2] is reported as 37.3 ± 1.9 Hz (frequency drop).

In the case of TTTTTAATATCCGGGTACGTTTTTTGGCCTTT (ssDNA, 5' C6 thiol) [PSAG117], the binding signal [2] is reported as 82.9 ± 5.8 Hz (frequency drop).

For TTTTTACGCACCGGGTACGTTTTTTGGCCTTT (ssDNA, 5' C6 thiol) [PSAG212], the binding signal [1] was 59.5 ± 5.8 Hz (frequency drop) and the Ka [3] was 0.28 ± 0.03 10^6 M-1.

With TTTTTAATATCCGGGTTCCCGGTTGTCTCTTT (ssDNA, 5' C6 thiol) [PSAG24] the binding signal [1] was 131 ± 4.9 Hz (frequency drop) and the Ka [4] was 0.27 ± 0.04 10^6 M-1.

With TTTTTCTGGAATGATTTCCCGGTTGTCTCTTT (ssDNA, 5' C6 thiol) [PSAG15] the binding signal [2] was 108 ± 14 Hz (frequency drop).

With TTTTTCTGTTGCCCGGAACGTCGTGGCCCTTT (ssDNA, 5' C6 thiol) [PSAG11] the binding signal [2] was 19.2 ± 1.7 Hz (frequency drop).

For TTTTTCCGCACAACTTGCCATCAAATATCTTT (ssDNA, 5' C6 thiol) [PSAG118], the binding signal [2] was 24.9 ± 3.9 Hz (frequency drop).

With TTTTTACTTAATGCGGAACGTCGTGGCCCTTT (ssDNA, 5' C6 thiol) [PSAG112] the binding signal [2] was 71.7 ± 1.3 Hz (frequency drop).
